Reference: PMC9376891

Target: Rae1(31-368)-Nup98(157-213) heterodimer (human), P78406
Experiment: ITC

B1: VSV M NTE peptide (peptide)
chain: DEMDTHDPNQLRY
modifications: not checked
- Kd: 117 µM
